Holding throughout (test): analytical SEC
Common to all, as to settings: cell culture supernatant of Expi293F cells; parent: est. 72; read off a plot

The target of assay [1] is B/Iowa/06/2017 HA HA1 220F.
For assay [2], the target named is B/Iowa/06/2017 HA HA1 220N.
In assay [3] the target is B/Iowa/06/2017 HA HA1 220Q.
Assay [4] deals with B/Iowa/06/2017 HA HA1 220T.
The target in assay [5] is B/Iowa/06/2017 HA HA1 259V.
For assay [6], the target named is B/Iowa/06/2017 HA HA1 314M.
Assay [7] concerns the target B/Iowa/06/2017 HA HA1 H311M.
For assay [8], the target named is B/Iowa/06/2017 HA HA1 K209F.
The target of assay [9] is B/Iowa/06/2017 HA HA1 K209I.
Assay [10] addresses B/Iowa/06/2017 HA HA1 K209L.
The target of assay [11] is B/Iowa/06/2017 HA HA1 K209Q.
Assay [12] concerns the target B/Iowa/06/2017 HA HA1 K209T.
Assay [13] concerns the target B/Iowa/06/2017 HA HA1 K209Y.
Assay [14] addresses B/Iowa/06/2017 HA HA1 T211V.
The target in assay [15] is B/Iowa/06/2017 HA HA1 T218N.
In assay [16] the target is B/Iowa/06/2017 HA HA1 T218V.
The target in assay [17] is B/Iowa/06/2017 HA HA1 V217K.
The target in assay [18] is B/Iowa/06/2017 HA HA1 V217W.
Assay [19] addresses B/Iowa/06/2017 HA HA2 11P.
Assay [20] has as its target B/Iowa/06/2017 HA HA2 15P.
The target of assay [21] is B/Iowa/06/2017 HA HA2 18P.
Assay [22] deals with B/Iowa/06/2017 HA HA2 29P.
In assay [23] the target is B/Iowa/06/2017 HA HA2 30W.
The target in assay [24] is B/Iowa/06/2017 HA HA2 67T.
Assay [25] deals with B/Iowa/06/2017 HA HA2 91I.
The target of assay [26] is B/Iowa/06/2017 HA HA2 93A.
Assay [27] addresses B/Iowa/06/2017 HA HA2 111Q.
The target of assay [28] is B/Iowa/06/2017 HA HA2 116R.
Assay [29] has as its target B/Iowa/06/2017 HA HA2 116W.
For assay [30], the target named is B/Iowa/06/2017 HA HA2 D71P.
In assay [31] the target is B/Iowa/06/2017 HA HA2 E113F.
Assay [32] deals with B/Iowa/06/2017 HA HA2 E113L.
Assay [33] has as its target B/Iowa/06/2017 HA HA2 E113Q.
For assay [34], the target named is B/Iowa/06/2017 HA HA2 E113W.
The target in assay [35] is B/Iowa/06/2017 HA HA2 G68L.
The target of assay [36] is B/Iowa/06/2017 HA HA2 G68Y.
The target of assay [37] is B/Iowa/06/2017 HA HA2 H22Y.
For assay [38], the target named is B/Iowa/06/2017 HA HA2 H114I.
For assay [39], the target named is B/Iowa/06/2017 HA HA2 H114Q.
Assay [40] deals with B/Iowa/06/2017 HA HA2 H114W.
The target in assay [41] is B/Iowa/06/2017 HA HA2 H114Y.
The target of assay [42] is B/Iowa/06/2017 HA HA2 Q64F.
Assay [43] concerns the target B/Iowa/06/2017 HA HA2 Q64P.
The target in assay [44] is B/Iowa/06/2017 HA HA2 Q64W.
In assay [45] the target is B/Iowa/06/2017 HA HA2 Q64Y.
Assay [46] addresses B/Iowa/06/2017 HA HA2 S40A.
For assay [47], the target named is B/Iowa/06/2017 HA HA2 S110W.

Regarding “wild-type soluble hemagglutinin (HA) of influenza B/Iowa/06/2017 HA1:220F”, the other: trimer fraction in assay [1] was 85%.

Consider “wild-type soluble hemagglutinin (HA) of influenza B/Iowa/06/2017 HA1:220N”, for which the other: trimer fraction in assay [2] stood at 71%. On to “wild-type soluble hemagglutinin (HA) of influenza B/Iowa/06/2017 HA1:220Q”, for which the other: trimer fraction in assay [3] is 62%. Consider “wild-type soluble hemagglutinin (HA) of influenza B/Iowa/06/2017 HA1:220T”, for which the other: trimer fraction in assay [4] was found to be 79%. Regarding “wild-type soluble hemagglutinin (HA) of influenza B/Iowa/06/2017 HA1:259V”, the other: trimer fraction in [5] came out at 92%. On to “wild-type soluble hemagglutinin (HA) of influenza B/Iowa/06/2017 HA1:314M”, for which the other: trimer fraction in [6] stood at 49%.

On to “wild-type soluble hemagglutinin (HA) of influenza B/Iowa/06/2017 HA1:H311M”, for which the other: trimer fraction in assay [7] was determined as 68%.

Take “wild-type soluble hemagglutinin (HA) of influenza B/Iowa/06/2017 HA1:K209F”: in assay [8], the other: trimer fraction came to 96%. Regarding “wild-type soluble hemagglutinin (HA) of influenza B/Iowa/06/2017 HA1:K209I”, the other: trimer fraction in [9] turned out to be 93%. For the substance “wild-type soluble hemagglutinin (HA) of influenza B/Iowa/06/2017 HA1:K209L”, the other: trimer fraction in assay [10] turned out to be 96%. As for “wild-type soluble hemagglutinin (HA) of influenza B/Iowa/06/2017 HA1:K209Q”, in assay [11], the other: trimer fraction turned out to be 98%.

Consider “wild-type soluble hemagglutinin (HA) of influenza B/Iowa/06/2017 HA1:K209T”, for which the other: trimer fraction in [12] is 98%. On to “wild-type soluble hemagglutinin (HA) of influenza B/Iowa/06/2017 HA1:K209Y”, for which the other: trimer fraction in assay [13] was found to be 92%. Regarding “wild-type soluble hemagglutinin (HA) of influenza B/Iowa/06/2017 HA1:T211V”, in assay [14], the other: trimer fraction stood at 78%. As for “wild-type soluble hemagglutinin (HA) of influenza B/Iowa/06/2017 HA1:T218N”, the other: trimer fraction in assay [15] stood at 89%. With “wild-type soluble hemagglutinin (HA) of influenza B/Iowa/06/2017 HA1:T218V”, in assay [16], the other: trimer fraction came out at 69%.

For the substance “wild-type soluble hemagglutinin (HA) of influenza B/Iowa/06/2017 HA1:V217K”, the other: trimer fraction in [17] is 91%.

As for “wild-type soluble hemagglutinin (HA) of influenza B/Iowa/06/2017 HA1:V217W”, the other: trimer fraction in assay [18] is 96%. For the substance “wild-type soluble hemagglutinin (HA) of influenza B/Iowa/06/2017 HA2:11P”, the other: trimer fraction in [19] was 76%. Regarding “wild-type soluble hemagglutinin (HA) of influenza B/Iowa/06/2017 HA2:15P”, in assay [20], the other: trimer fraction was found to be 69%. Take “wild-type soluble hemagglutinin (HA) of influenza B/Iowa/06/2017 HA2:18P”: in [21], the other: trimer fraction was 57%. Take “wild-type soluble hemagglutinin (HA) of influenza B/Iowa/06/2017 HA2:29P”: in [22], the other: trimer fraction was 77%. Consider “wild-type soluble hemagglutinin (HA) of influenza B/Iowa/06/2017 HA2:30W”, for which the other: trimer fraction in [23] stood at 69%. For the substance “wild-type soluble hemagglutinin (HA) of influenza B/Iowa/06/2017 HA2:67T”, the other: trimer fraction in assay [24] came out at 77%. As to “wild-type soluble hemagglutinin (HA) of influenza B/Iowa/06/2017 HA2:91I”, in assay [25], the other: trimer fraction amounted to 56%. Consider “wild-type soluble hemagglutinin (HA) of influenza B/Iowa/06/2017 HA2:93A”, for which, in [26], the other: trimer fraction stood at 87%.

As to “wild-type soluble hemagglutinin (HA) of influenza B/Iowa/06/2017 HA2:111Q”, in assay [27], the other: trimer fraction is 84%. With “wild-type soluble hemagglutinin (HA) of influenza B/Iowa/06/2017 HA2:116R”, the other: trimer fraction in assay [28] stood at 86%. “wild-type soluble hemagglutinin (HA) of influenza B/Iowa/06/2017 HA2:116W”: the other: trimer fraction in assay [29] came out at 90%. With “wild-type soluble hemagglutinin (HA) of influenza B/Iowa/06/2017 HA2:D71P”, the other: trimer fraction in assay [30] was found to be 88%. As for “wild-type soluble hemagglutinin (HA) of influenza B/Iowa/06/2017 HA2:E113F”, the other: trimer fraction in assay [31] worked out at 98%.

Turning to “wild-type soluble hemagglutinin (HA) of influenza B/Iowa/06/2017 HA2:E113L”, the other: trimer fraction in [32] worked out at 97%. In the case of “wild-type soluble hemagglutinin (HA) of influenza B/Iowa/06/2017 HA2:E113Q”, the other: trimer fraction in [33] came out at 97%. In the case of “wild-type soluble hemagglutinin (HA) of influenza B/Iowa/06/2017 HA2:E113W”, the other: trimer fraction in assay [34] is 100%.

Consider “wild-type soluble hemagglutinin (HA) of influenza B/Iowa/06/2017 HA2:G68L”, for which the other: trimer fraction in assay [35] came out at 97%. Consider “wild-type soluble hemagglutinin (HA) of influenza B/Iowa/06/2017 HA2:G68Y”, for which the other: trimer fraction in assay [36] was 96%. In the case of “wild-type soluble hemagglutinin (HA) of influenza B/Iowa/06/2017 HA2:H22Y”, the other: trimer fraction in assay [37] worked out at 85%. Regarding “wild-type soluble hemagglutinin (HA) of influenza B/Iowa/06/2017 HA2:H114I”, the other: trimer fraction in [38] is 55%.

For the substance “wild-type soluble hemagglutinin (HA) of influenza B/Iowa/06/2017 HA2:H114Q”, the other: trimer fraction in assay [39] was found to be 65%. For “wild-type soluble hemagglutinin (HA) of influenza B/Iowa/06/2017 HA2:H114W”, in assay [40], the other: trimer fraction was 43%. As for “wild-type soluble hemagglutinin (HA) of influenza B/Iowa/06/2017 HA2:H114Y”, in assay [41], the other: trimer fraction was found to be 65%. “wild-type soluble hemagglutinin (HA) of influenza B/Iowa/06/2017 HA2:Q64F”: the other: trimer fraction in assay [42] worked out at 96%. For “wild-type soluble hemagglutinin (HA) of influenza B/Iowa/06/2017 HA2:Q64P”, in assay [43], the other: trimer fraction was 65%. Take “wild-type soluble hemagglutinin (HA) of influenza B/Iowa/06/2017 HA2:Q64W”: the other: trimer fraction in assay [44] worked out at 93%. As to “wild-type soluble hemagglutinin (HA) of influenza B/Iowa/06/2017 HA2:Q64Y”, in [45], the other: trimer fraction came out at 98%. Take “wild-type soluble hemagglutinin (HA) of influenza B/Iowa/06/2017 HA2:S40A”: the other: trimer fraction in assay [46] was determined as 52%. For “wild-type soluble hemagglutinin (HA) of influenza B/Iowa/06/2017 HA2:S110W”, the other: trimer fraction in assay [47] worked out at 51%.

The values above are taken from PMC11497598.
